Data taken from paper PMC7391724 (Scientific Reports, 2020).

What was measured:
KB tumor xenografts [1] = experiment: KB tumor xenograft in nu/nu mice; assay type: in vivo; conditions: EC2629 0.3 µmol/kg iv SIW x 2 weeks
Experimental: (§1) Four- to eight-week-old female nu/nu mice and rats (Harlan Sprague Dawley, Inc.), were maintained on a standard 12-h light–dark cycle and fed ad libitum with a low-folate chow (Harlan Teklad diet #TD.01013, Madison, WI) for the duration of dosing and 1 week post dosing schedule. Mice and rats were then switched to Teklad Global 18% Rodent diet (Harlan Teklad diet #2018S) during the monitoring phase of the study. Parental KB, KB-CR2000 or KB-PR10 cells (1 × 10^6/100 µL per nu/nu mouse and 5 × 10^6/200 µL per nu/nu rat) were injected into the subcutis of the dorsal medial area. Mice were divided into groups of 5 and rats in groups of 3–4, and freshly prepared test articles were injected through the lateral tail vein under sterile conditions in a volume of 200 μL/20 g of PBS. In mice, intravenous treatments typically initiated on day 7 PTI when KB tumors were approximately 111–168 mm^3 in volume, on day 5 PTI when the KB-PR tumors were about 205–243 mm^3, and on day 6 PTI when the KB-CR tumors were around 98 to 168 mm^3. Treatments in rats were started on day 10 PTI when KB tumors were approximately 412–704 mm^3 in volume.
Animals in the control groups received no treatment. Growth of each subcutaneous tumor was followed by measuring the tumor 3 times per week during treatment and twice per week thereafter, until a maximum volume of 1,500 mm^3 for mice and 15,000 mm^3 for rats were reached. Tumors were measured in two perpendicular directions using Vernier calipers, and their volumes were calculated as V = 0.5 × L × W^2, where L = measurement of longest axis in mm and W = measurement of axis perpendicular to L in mm[16]. As a general measure of gross toxicity, changes in body weights were determined on the same schedule as tumor volume measurements. Survival of animals was monitored daily. Animals that were moribund (or unable to reach food or water) were euthanized by CO2 asphyxiation. Individual tumor response endpoints were reported in terms of tumor volume change. A partial response (PR) was defined as volume regression > 50% but with measurable tumor (> 2 mm^3) remaining at all times. Complete response (CR) was defined as a disappearance of measurable tumor mass (< 2 mm^3) at some point within 90 days after tumor implantation. Cures were defined as CRs without tumor regrowth within the 90-day study time frame.

KB tumor xenografts [2] = experiment: KB tumor xenograft in nu/nu rats; assay type: in vivo; conditions: EC2629 0.15 µmol/kg iv SIW x 2 weeks
Experimental: as §1, with “In mice, intravenous treatments typically initiated on day 7 PTI when KB tumors were approximately 111–168 mm^3 in volume, on day 5 PTI when the KB-PR tumors were about 205–243 mm^3, and on day 6 PTI when the KB-CR tumors were around 98 to 168 mm^3. Treatments in rats were started on day 10 PTI when KB tumors were approximately 412–704 mm^3 in volume.” left out
Animals in the control groups received no treatment. […] Tumors were measured in two perpendicular directions using Vernier calipers, and their volumes were calculated as V = 0.5 × L × W^2, where L = measurement of longest axis in mm and W = measurement of axis perpendicular to L in mm[16]. As a general measure of gross toxicity, changes in body weights were determined on the same schedule as tumor volume measurements. Survival of animals was monitored daily. […]

[3] = Plasma protein binding (ultrafiltration), mouse; assay type: in vitro ADME; conditions: 37 °C
Experimental: (§2) Plasma ultrafiltration was used for determination of free and protein bound fractions of EC2629 and EC2491. Samples were extracted and analyzed using fit-for-purpose bioanalytical methods. Briefly, 500 nM EC2629 or EC2491 was spiked into plasma maintained at 37 °C prior to plasma ultrafiltration. Plasma spiked with 500 nM EC2629 or EC2491 was allowed to equilibrate at 37 °C for 30 min prior to processing. Next, 50 μL of plasma was transferred to a clean 1.2 mL plate stored at 2–8 °C for further processing. The remaining plasma sample volumes were transferred to 30 Kd MWCO PES filter to generate plasma ultrafiltrate by centrifugation at 10,000×g for 20 min. After which, 50 μL of each plasma ultrafiltrate was transferred to separate wells in a clean 1.2 mL plate. To all spiked plasma samples, 50 μL of blank plasma ultrafiltrate was added. 50 μL of blank plasma was added to all experimental ultrafiltrate samples. These blank matrix additions normalized the matrix effects for protein binding determination. Samples were then extracted using protein precipitation with a 3:1 ratio of acetonitrile after addition of internal standard. The supernatant transferred to a new plate, evaporated, and reconstituted prior to LC–MS/MS analysis.

[4] = Plasma protein binding (ultrafiltration), dog; assay type: in vitro ADME; conditions: 37 °C
Experimental: as §2

[5] = Plasma protein binding (ultrafiltration), human; assay type: in vitro ADME; conditions: 37 °C
Experimental: as §2

Plasma stability, rat = assay type: in vitro ADME; conditions: 500 nM, 37 °C, 2 h
Experimental: (§3) Whole blood and plasma stability were determined for EC2629 and EC2491 at a concentration of 500 nM. Samples were extracted and analyzed using fit-for-purpose bioanalytical methods. EC2629 or EC2491 was spiked into 1 mL whole blood or plasma maintained at 37 °C for 30 min prior to use . Fifty µl aliquots were then removed at defined timepoints and stored in a 1.2 mL extraction plate prior to analysis. Samples were then extracted using protein precipitation with a 3:1 ratio of acetonitrile after addition of internal standard. The supernatant was then transferred to a new plate, evaporated, and reconstituted prior to LC–MS/MS analysis.

Plasma stability, dog = assay type: in vitro ADME; conditions: 500 nM, 37 °C, 2 h
Experimental: as §3

Plasma stability, human = assay type: in vitro ADME; conditions: 500 nM, 37 °C, 2 h
Experimental: as §3

[6] = Whole blood stability, rat; assay type: in vitro ADME; conditions: 37 °C, after two hours, read-out: percent remaining in whole blood
Experimental: as §3

[7] = Whole blood stability, mouse; assay type: in vitro ADME; conditions: 500 nM, 37 °C, two hours, mouse blood
Experimental: as §3

[8] = Whole blood stability, human; assay type: in vitro ADME; conditions: 500 nM, 37 °C, two hours, human blood
Experimental: as §3

For `C=C1C[C@H]2C=Nc3cc(OCCCCCOc4cc(N)c(C(=O)N5CC(=C)C[C@H]5C5OCCN5C(=O)OCC(C)(C)SSCCC(=O)NCCNC(=O)CCOCCOCCOCCOCCNC(=O)CCN5C(=O)CC(SC[C@H](NC(=O)[C@H](CC(=O)O)NC(=O)[C@H](CC(=O)O)NC(=O)[C@H](CCCNC(=N)N)NC(=O)[C@H](CC(=O)O)NC(=O)CC[C@H](NC(=O)c6ccc(NCc7cnc8nc(N)[nH]c(=O)c8n7)cc6)C(=O)O)C(=O)O)C5=O)cc4OC)c(OC)cc3C(=O)N2C1` (some centres unmarked) [EC2629], the body weight change (KB tumor xenografts [1]) was “did not lose any significant weight”, the body weight change (KB tumor xenografts [2]) was “did not lose any significant weight” and the fraction unbound at 30 min, 500 nM [3] was 0.051. For the same compound, the fraction unbound at 30 min, 500 nM [4] was 0.055, the fraction unbound at 30 min, 500 nM [5] was 0.128 and the plasma stability (Plasma stability, rat) was “stable”. The plasma stability (Plasma stability, dog) was “stable”, the plasma stability (Plasma stability, human) was “stable” and the remaining at 2 h, 500 nM [6] was 75.1%. The whole blood stability [7] was “no observed degradation” and the whole blood stability [8] was “no observed degradation”.
